Here are results for six substances from PMC10450692.

Some targets named below: scrambled Aβ(1–40); Aβ(1–16); Aβ(1–28); Aβ(1–38).
Assay in all cases: native MS; native nanoESI ion mobility MS (Synapt G2-S), 20 μM peptide in 200 mM ammonium acetate pH 6.8, positive ion mode, 25 °C source temperature; self-association of SEC-purified monomer
The target in test [1] is amyloid-β peptide Aβ(1–40).
Test [2] concerns the target Aβ(1–40)CC (A21C and A30C double mutant with an intramolecular disulfide bond).

One may read the stoichiometry N as the number of molecules, sites or subunits per partner or assembly. As to scrambled Aβ(1–40) (peptide), in the test with scrambled Aβ(1–40), the stoichiometry N worked out at 2. amyloid-β peptide Aβ(1–40) came in with a stoichiometry N in test [1] above 8. Aβ(1–16) (peptide) came in with a stoichiometry N in the test with Aβ(1–16) of 2.

Regarding Aβ(1–28) (peptide), the stoichiometry N with Aβ(1–28) worked out at 6. The substance “Aβ(1–40)CC (A21C and A30C double mutant with an intramolecular disulfide bond) (peptide)” yielded a stoichiometry N in test [2] above 10. In the test with Aβ(1–38), Aβ(1–38) (peptide) showed a stoichiometry N above 6.
